The values that follow come from US20230303685A1 (ELECTRA THERAPEUTICS, published 2023).

In assay [1] the target is T1, Human SIRPγ.
T1 construct: also called human SIRPγ extracellular domain, plate-coated
T1 chain: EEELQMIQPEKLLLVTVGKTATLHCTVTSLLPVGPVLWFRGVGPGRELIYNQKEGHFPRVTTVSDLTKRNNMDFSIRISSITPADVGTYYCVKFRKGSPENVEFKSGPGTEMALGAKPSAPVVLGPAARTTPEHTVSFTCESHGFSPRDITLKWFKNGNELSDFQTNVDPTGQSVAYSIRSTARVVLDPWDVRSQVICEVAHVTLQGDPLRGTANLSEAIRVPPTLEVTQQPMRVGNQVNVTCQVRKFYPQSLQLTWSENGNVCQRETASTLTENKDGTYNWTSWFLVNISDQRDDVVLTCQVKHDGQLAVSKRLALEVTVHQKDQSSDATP
In words: ELISA, extracellular domain coated at 2 µg/mL, purified antibody titrated, anti-rat or anti-mouse IgG, chemiluminescence. The procedure: (§1) Select SIRP antibodies were purified by Protein G from hybridoma supernatants and analyzed in a titration via ELISA. Briefly, 2 μg/mL of extracellular domain of each of the SIRPs was coated onto high protein-binding plates and blocked. Purified antibodies were added in a titration to the coated plates. The antibodies were detected by an anti-rat IgG or an anti-mouse IgG antibody and a chemiluminescent substrate.
On the technique in general: ELISA stands for enzyme-linked immunosorbent assay.

In another assay the target is T2, Human SIRPβ1.
T2 construct: also called human SIRPβ1 extracellular domain, plate-coated
T2 chain: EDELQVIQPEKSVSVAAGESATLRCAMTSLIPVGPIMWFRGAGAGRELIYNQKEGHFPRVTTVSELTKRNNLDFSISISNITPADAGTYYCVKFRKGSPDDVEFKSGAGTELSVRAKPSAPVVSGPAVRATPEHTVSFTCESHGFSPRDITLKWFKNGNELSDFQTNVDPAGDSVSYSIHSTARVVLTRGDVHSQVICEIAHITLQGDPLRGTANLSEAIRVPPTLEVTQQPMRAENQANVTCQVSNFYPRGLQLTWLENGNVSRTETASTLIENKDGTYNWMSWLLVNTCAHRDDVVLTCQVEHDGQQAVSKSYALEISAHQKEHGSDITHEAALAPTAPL
The description is as above. The procedure: as §1

The target in assay [2] is T3, human SIRPα V1 extracellular domain, monomeric (human, UniProt P78324 31-373).
T3 construct: also called hSIRPα V1
Kind of assay: ELISA, extracellular domain coated at 1 µg/mL, purified antibody titrated, anti-rat IgG, chemiluminescence. The procedure: (§2) Select SIRP antibodies were purified by Protein G from hybridoma supernatants and analyzed in a titration via ELISA. Briefly, 1 μg/mL of extracellular domain SIRPα was coated onto high protein-binding plates and blocked. Purified antibodies were added in a titration to the coated plates. The antibodies were detected by an anti-rat IgG antibody and a chemiluminescent substrate.

In another assay the target is T4, human SIRPγ-His monomer (human).
T4 construct: 'SIRP-His monomer protein' of the Octet assay; also called SIRP-His; not shown: His tag
In words: BLI (Octet); antibody on anti-mouse IgG capture tip, SIRP-His monomer at 100, 33.3, 11.1 nM, 1:1 fit, mean KD. The procedure: (§3) Select SIRP antibodies were tested for their affinities to human SIRPα, SIRPβ1, and SIRPγ using a biolayer interferometry (BLI) Octet system (Pall ForteBio). Each SIRP antibody with rat or mouse Fc was immobilized on a biosensor tip by an anti-mouse IgG capture (AMC). Antibodies with human Fc were digested with gingipain K enzyme to yield monomeric F(ab′), biotinylated, then coated onto streptavidin biosensors. […] The biosensors were then exposed to wash buffer to measure off-rate kinetics. The resulting kinetic data were analyzed and fitted using a 1:1 binding model with kₒₙ and kdis fitted separately at each SIRP-His protein concentration. KD affinities were calculated as kdis to kₒₙ ratio at each concentration of SIRP-His and averaged.

For another assay, the target named is T5, human SIRPβ1-His monomer (human, UniProt O00241 30-371).
T5 construct: 'SIRP-His monomer protein' of the Octet assay; also called SIRP-His; not shown: His tag
The assay is described as above. On the procedure:
as §3

The target in assay [3] is T6, human SIRPα V1-His monomer (human, UniProt P78324 31-373, limits assumed).
T6 construct: 'SIRP-His monomer protein' of the Octet assay; also called SIRP-His; not shown: His tag
Described as above. On the procedure:
as §3

For the next assay, the target named is T7, Human SIRPβ1/DAP12 CHO.
T7 construct: also called human SIRPβ1 on CHO cells co-transfected with DAP12; copies: 1 + 2
T7 sequence (DAP12, as listed by the source limits assumed): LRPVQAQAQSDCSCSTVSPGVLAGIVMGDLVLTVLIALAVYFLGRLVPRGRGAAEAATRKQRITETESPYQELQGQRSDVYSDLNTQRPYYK
Kind of assay: flow cytometry, stably transfected CHO cells, antibody titrated, labelled anti-rat or anti-mouse IgG, MFI. On the procedure:
(§4) Selected antibodies were tested for binding to stably transfected human SIRPα, SIRPβ1 (co-transfected with DAP12), or SIRPγ Chinese hamster ovary (CHO) cells via flow cytometry. A titration of SIRP antibodies was added to the cells and detected using a fluorescently labelled secondary antibody. Graph depicts the median fluorescence intensity (MFI) at each concentration.
In general terms: Flow cytometry measures light scatter and fluorescence of single cells or particles in a stream.

In assay [4] the target is T8, Human SIRPγ CHO.
T8 construct: also called human SIRPγ on CHO cells
T8 chain: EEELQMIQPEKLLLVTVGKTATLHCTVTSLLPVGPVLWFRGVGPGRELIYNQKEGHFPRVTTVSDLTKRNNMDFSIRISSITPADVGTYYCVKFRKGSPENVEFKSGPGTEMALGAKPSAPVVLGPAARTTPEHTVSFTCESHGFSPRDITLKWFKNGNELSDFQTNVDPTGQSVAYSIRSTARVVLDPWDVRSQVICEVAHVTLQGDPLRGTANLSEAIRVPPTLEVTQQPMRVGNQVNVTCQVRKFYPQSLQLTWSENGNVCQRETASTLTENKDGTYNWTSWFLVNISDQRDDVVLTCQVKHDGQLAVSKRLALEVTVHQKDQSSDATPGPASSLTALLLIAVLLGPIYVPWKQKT
The assay is described as above. On the procedure: as §4

For assay [5], the target named is T9, Human SIRPγ conjugated to an Fc region (human).
T9 construct: also called SIRPγ-Fc; SIRP-Fc; not shown: Fc region
Kind of assay: BLI blocking; 200 nM antibody pre-incubated with 20 nM SIRPγ-Fc, binding to immobilised CD47-His (competitor), % of response of SIRPγ-Fc alone.

In assay [6] the target is T10, cynomolgus monkey SIRPα extracellular domain, monomeric (cynomolgus monkey, UniProt A0A2K5VYQ9 31-372).
T10 construct: extracellular domain; also called Cyno SIRPα
In words: SPR (Biacore); antibody captured by anti-IgG on chip, monomeric SIRPα extracellular domain as analyte, 1:1 model. On the procedure: (§5) Selected antibodies were tested for their affinities to two hSIRPα variants (V1 and V2), and to cynomolgus monkey (herein referred to as “cyno”) SIRPα. The affinities of these SIRP antibodies were determined using surface plasmon resonance. The SIRP antibodies were flowed onto a chip and captured by an anti-mouse IgG or an anti-human IgG covalently coupled to the surface of the chip. A three-point titration of the extracellular binding domain of hSIRPα was performed per the manufacturer's recommended protocols.
(In SPR one partner is held on a chip, and binding of the other changes the refractive index at the surface.)

Assay [7] deals with T11, human SIRPα V2 extracellular domain, monomeric (human, UniProt P78324 31-370).
T11 construct: also called hSIRPα V2
The assay is described as above. The procedure:
as §5

For assay [8], the target named is T3, human SIRPα V1 extracellular domain, …. The assay is described as above. The procedure:
as §5

Assay [9] addresses T1, Human SIRPγ. In words: ELISA, extracellular domain coated at 1 µg/mL, purified antibody titrated, anti-human IgG, chemiluminescence. The procedure:
as §2
FIGS. 3A-3C show binding curves of SIRP antibodies and two isotype controls with human Fc to human SIRPα V1, human SIRPβ1, human SIRPγ and cynomolgus monkey SIRPα by ELISA. […] Isotype control 1 was an unrelated human IgG1 antibody with irrelevant CDRs. Isotype control 2 was the same as isotype control 1 but contained the same amino acid substitutions in the Fc region as some of the selected SIRP antibodies for increased FcγR binding (referring to Table 11). DNA was transiently transfected into CHO cells for 7 days. Antibodies were purified by Protein A from cell supernatants and analyzed in a titration via ELISA as previously described in FIGS. 2A-2B using an anti-human IgG antibody as the detection antibody.

Assay [10] addresses T8, Human SIRPγ CHO. Kind of assay: flow cytometry, stably transfected CHO cells, antibody titrated, labelled anti-human IgG, MFI. On the procedure: as §4
Assay [11] deals with T3, human SIRPα V1 extracellular domain, …. In words: ELISA, extracellular domain coated at 2 µg/mL, purified antibody titrated, anti-rat or anti-mouse IgG, chemiluminescence. On the procedure: as §1
The target of another assay is T12, Cynomolgus Monkey SIRPγ (Macaca fascicularis).
T12 construct: extracellular domain; also called cyno SIRPγ extracellular domain, plate-coated
The description is as above. The procedure: as §1

For assay [12], the target named is T10, cynomolgus monkey SIRPα extracellular …. Described as above. On the procedure: as §1

B1: Antibody 11 (antibody, V domains shown)
VH: EVQLVESGGGLVQPGGSLRLSCAASGFTFSSYWMHWVRQAPGKGLVWVSRIHNDGSRTSYADSVKGRFTISRDNAKNTLYLQMSSLRAEDTAVYYCTRDPPPYDILTGYPFDYWGQGTLVTVSS
VL: DIQMTQSPSSVSASVGDRVTITCRASQDISSWLAWFQQKPGKAPKLLIYGASSLQSGVPSRFSGSGSGTDFTLTISSLQPEDFATYYCQEANSFPYTFGQGTKLEIK
notes: Human variable region, rat IgG2b Fc; from hybridoma
Usually EC50 (read off the curve) stands for the concentration that produces a half-maximal response. In general, Kd refers to the constant that tells how readily two partners part at equilibrium. As for B1, the binding result in the assay with Human SIRPγ [1], in the assay with Human SIRPβ1, in the assay with Human SIRPβ1/DAP12 CHO and with Human SIRPγ CHO [4] was “binds” throughout. Besides, the “EC50 (read off the curve)” value in assay [2] is approximately 0.1 µg/mL. For the same molecule, the Kd in the assay with human SIRPγ-His monomer worked out at 13.3 nM; with human SIRPβ1-His monomer, 61.9 nM; in assay [3] it was 3.74 nM. Moreover, the “SIRPγ-CD47 Response (%)” value in [5] was -3.8%.

B2: Antibody 25 (antibody, V domains shown)
VH: EVQMLESGGGLVQPGGSLRLSCAASGFTFSSYAMSWVRQAPGKGLEWVSAISGSGSSTHYADSVKGRFTISRDNSKNTLYLQMNSLRAEDTAVYYCAAYSGSYYYYGMDVWGQGTTVTVSS
VL: EIVMTQSPATLSVSPGERATLSCRASQSVSRNLAWYQQKSGQAPRLLIYGASTRATGIPARFSGSGSGTEFTLTISSLQSEDFAGYYCQQYNNWPYTFGQGTKLEIK
notes: Variable regions of Antibody 13
As to B2, the dissociation constant (Kd) in assay [6] is 12.6 nM; in assay [7], 9.09 nM; in assay [8], 11.4 nM. In addition, the results for the “EC50 (read off the curve)” value with Human SIRPγ [9] and in the assay with Human SIRPγ CHO [10] were approximately 0.04 µg/mL and approximately 0.7 µg/mL, respectively.

B3: Antibody 8 (antibody, V domains shown)
VH: QVQLQQWGAGLLKPSETLSLTCAVYGGSFSGYYWSWIRQPPGKGLEWIGEINHSGSTNFNPSLKSRVTISVDTSKNQFSLKLRSVTAADTAVYYCSRVDSGSYPYYDGLDVWGQGTTVTVSS
VL: SSELTQPPSVSVSPGQTASITCSGDKLGDKYVYWYQQKPGQSPVLVIYHDDRRPAGIPERFAGSASGNTATLTISGTQAMDEADYYCQTWDSSTVVFGGGTKLTVL
notes: as for B1
Consider B3, for which the “EC50 (read off the curve)” value in the assay with Human SIRPγ [1] is approximately 0.02 µg/mL; in [11], approximately 0.03 µg/mL; with Human SIRPβ1, approximately 0.02 µg/mL; with Cynomolgus Monkey SIRPγ it was approximately 0.03 µg/mL. Further, the Kd in the assay with human SIRPγ-His monomer was 50 nM; in the assay with human SIRPβ1-His monomer, 78.9 nM; in assay [3], 46.6 nM. The binding result in the assay with Human SIRPβ1/DAP12 CHO and with Human SIRPγ CHO [4] was “binds” each time. Moreover, the “SIRPγ-CD47 Response (%)” value in assay [5] is -4.94%.

B4: Antibody 15 (antibody, V domains shown)
VH: QIQLVQSGPELKKPGETVKISCKGSGYTFRNFGMNWVKQAPGMGLKWMVWIDTNTGEPTYAEEFKGRFAFSLETSASTAYLQINNLKNEDTATYFCARSRGNYFAMEYWGQGTSVTVSS
VL: DIKMTQSPSSMYASLGERVTVTCKASQDINRYLSWFQQKPGKSPKTLIYRANRLVDGVPSRFSGSGSGQDYSLTISSLEYEDMGFYYCLQYDEFPFTFGSGTKLEIK
notes: Mouse variable region, mouse IgG2a Fc; from hybridoma
As to B4, the “EC50 (read off the curve)” value was approximately 0.2 µg/mL in the assay with Human SIRPγ [1], approximately 0.1 µg/mL in [12] and approximately 2 µg/mL with Human SIRPγ CHO [4]. The binding result with Human SIRPβ1 and with Human SIRPβ1/DAP12 CHO was “binds” each time. Further, the Kd with human SIRPγ-His monomer came to 54.4 nM; in [3], 0.244 nM. Further, the “SIRPγ-CD47 Response (%)” value in assay [5] worked out at 129%.
